Patent US12123876B2, “Antibody binding to HEG1 and use of the antibody for detection and treatment of mesothelioma” (Kanagawa Prefectural Hospital Organization, priority 2016, dated 2024)

Tests used:
[1] = test system: formalin-fixed tissue sections of cancers except mesothelioma; assay: Hybridoma screening by immunostaining of formalin-fixed tissue sections; conditions: hybridoma culture supernatant
[2] = test system: HEG1 protein on the surface of ACC-MESO4 cells; assay: Flow cytometry of ACC-MESO4 cells with antibody; type: cell-based, human; conditions: FITC-labeled anti-mouse IgG, flow cytometer
Experimental: First, ACC-MESO4 was cultured, and cells adhering to the culture dish were peeled off with a scraper. The cells peeled off were reacted with the SKM9-2 antibody, and then treated with FITC-labeled anti-mouse IgG, and analyzed by using a flow cytometer. […] If the SKM9-2 antibody binds to the extracellular region of HEG1 protein, cells are to be FITC-labeled and thus fluorescence would be observed in flow cytometry.

[3] = test system: healthy tissues without any apparent lesion; assay: Immunohistological staining of normal tissues; set-up: species or system human
Experimental: AMeX-fixed cell precipitates or formalin-fixed tissues were paraffin-embedded to prepare thin sections. Each of the sections was fixed to a microscope slide, and subjected to deparaffinization and dehydration with xylene and ethanol, followed by activation of an antigen under different conditions. Each section was treated with 3% hydrogen peroxide for 5 minutes to deactivate endogenous peroxidase, and then washed with PBS and blocked with 0.5% casein for 10 minutes. After 100 μL of a solution containing a primary antibody was added to each section and treated at room temperature for 2 hours, the section was washed with PBS and allowed to develop color by using a Histofine Simple Stain MAX-PO (Multi) ([…] BIOSCIENCE INC.), Ventana ultraView DAB universal kit (Roche Diagnostics K. K.), or the EnVision+kits. Each section was stained with hematoxylin and then dehydrated, and encapsulated with Malinol (MUTO PURE CHEMICALS CO., LTD.) to observe under a microscope. The conditions for activation of an antigen were as follows: at 98° C. for 40 minutes for calretinin, mesothelin, and the SKM9-2 antigen; and at 95° C. for 64 minutes for cytokeratin 5/6 (CK5/6), podoplanin, and Wilms' tumor gene product 1 (WT-1). The following activation solutions were used: 10 mM Tris buffer (pH 9.0) containing 1 mM ethylenediamine tetraacetate (EDTA) for calretinin, CK5/6, and podoplanin; and 10 mM citrate buffer (pH 6.0) containing 0.1% TWEEN® 20 (polyethylene glycol sorbitan monolaurate, polyoxyethylenesorbitan monolaurate) for WT-1, mesothelin, and the SKM9-2 antigen. The following primary antibodies were used: a rabbit anti-calretinin polyclonal antibody (PAD:DC8) (Life Technologies Japan Ltd., Tokyo, Japan) for calretinin; a mouse anti-cytokeratin 5,6 monoclonal antibody (D5/16B4) ([…] BIOSCIENCE INC.) for CK5/6; a mouse anti-human mesothelin monoclonal antibody (5B2) (Leica Microsystems, Inc., Bannockburn, IL) for mesothelin; a mouse anti-podoplanin monoclonal antibody (D2-40) (Roche Diagnostics K. K.) for podoplanin; and a mouse anti-human WT-1 monoclonal antibody (6F-H2) (Roche Diagnostics K. K.) for WT-1.
In addition, the reactivity of the SKM9-2 antibody with normal tissues was examined by immunohistological staining. Immunostaining was performed by using the SKM9-2 antibody for healthy tissues without any apparent lesion.

B1: SKM9-2 antibody: mouse monoclonal IgG1 kappa antibody binding glycosylated HEG1; heavy chain SEQ ID NO: 2, light chain SEQ ID NO: 4 (antibody, listed as Mus musculus)
heavy: MGWSSIILFLVATTTGVHSQVQLQQPGAELVRPGASVKLSCKASGFSFTTYWITWVKQRPGQGLEWIGMIHPSDSETRLSQTFKDKATLTVDKSSNTAYMQFSSPTSEDSAVYYCVRDFDVWGAGTTVTVSSAKTTPPSVYPLAPGSAAQTNSMVTLGCLVKGYFPEPVTVTWNSGSLSSGVHTFPAVLQSDLYTLSSSVTVPSSTWPSETVTCNVAHPASSTKVDKKIVPRDCGCKPCICTVPEVSSVFIFPPKPKDVLTITLTPKVTCVVVDISKDDPEVQFSWFVDDVEVHTAQTQPREEQFNSTFRSVSELPIMHQDWLNGKEFKCRVNSAAFPAPIEKTISKTKGRPKAPQVYTIPPPKEQMAKDKVSLTCMITDFFPEDITVEWQWNGQPAENYKNTQPIMDTDGSYFVYSKLNVQKSNWEAGNTFTCSVLHEGLHNHHTEKSLSHSPGK
light: MKLPVRLLVLMFWIPASISDVLMTQTPLSLPVSLGDQASISCRSSQNIVHNNGNTYLGWYLQKPGQSPKLLIFKVSNRFSGVPDRFSGSGSGTDFTLKISRVEAEDLGVYYCFQGSHIPRTFGGGTRLEIKRADAAPTVSIFPPSSEQLTSGGASVVCFLNNFYPKDINVKWKIDGSERQNGVLNSWTDQDSKDSTYSMSSTLTLTKDEYERHNSYTCEATHKTSTSPIVKSFNRNEC
- Reactivity with formalin-fixed tissue sections of cancers except mesothelioma [1]: almost non-reactive
- Binding to cell surface of ACC-MESO4 [2]: bind to a HEG1 protein part exposed on the surface of the cell membrane
- Number of positive cases/number of samples ([3]; Bladder and ureter): 0/5
- Number of positive cases/number of samples ([3]; Blood vessel, *Some cells were positive): *5/8
- Number of positive cases/number of samples ([3]; Bronchus): 0/12
- Number of positive cases/number of samples ([3]; Cerebrum): 0/29
- Number of positive cases/number of samples ([3]; Duodenum): 0/2
- Number of positive cases/number of samples ([3]; Esophagus): 0/2
- Number of positive cases/number of samples ([3]; Gallbladder): 0/5
- Number of positive cases/number of samples ([3]; Kidney): 0/10
- Number of positive cases/number of samples ([3]; Large intestine): 0/6
- Number of positive cases/number of samples ([3]; Liver): 0/8
- Number of positive cases/number of samples ([3]; Lung): 0/23
- Number of positive cases/number of samples ([3]; Lymph node): 0/4
- Number of positive cases/number of samples ([3]; Mammary gland): 0/5
- Number of positive cases/number of samples ([3]; Muscle): 0/4
- Number of positive cases/number of samples ([3]; Myocardium): 0/12
- Number of positive cases/number of samples ([3]; Ovary): 0/4
- Number of positive cases/number of samples ([3]; Pancreas): 0/10
- Number of positive cases/number of samples ([3]; Pericardium): 1/1
- Number of positive cases/number of samples ([3]; Peritoneum): 0/2
- Number of positive cases/number of samples ([3]; Pleura): 0/5
- Number of positive cases/number of samples ([3]; Prostate): 0/10
- Number of positive cases/number of samples ([3]; Stomach): 0/3
- Number of positive cases/number of samples ([3]; Testicular serosa): 0/1
- Number of positive cases/number of samples ([3]; Testis): 1/5
- Number of positive cases/number of samples ([3]; Thyroid): 0/5
- Reactivity with normal tissue cells ([3]; normal mesothelial cells other than pericardial mesothelial cells): Negative
- Reactivity with normal tissue cells ([3]; pericardial mesothelial cells): positive image
- Reactivity with normal tissue cells ([3]; seminiferous tubule, one case for the testis): positive
- Reactivity with normal tissue cells ([3]; vascular endothelial cells): positive image
